Tests used:
MBP-SmMef2 [1] = target: T1, MBP-SmMef2 (Schistosoma mansoni, UniProt G8JE45 1-730); experiment: EMSA; 5 mM MgCl2, poly(dI-dC); LightShift kit 1x binding buffer, 2.5% glycerol, 5 mM MgCl2, 50 ng/uL poly(dI-dC), 0.05% NP-40, 180 fmol hot dsDNA, 1.4 ug protein, 20 min room temperature; 5%; conditions: protein: recombinant; tags: N-terminal MBP (pMAL-c5x); chain copies: 2; label: 5' biotin on forward strand (hot); blunt
T1 sequence: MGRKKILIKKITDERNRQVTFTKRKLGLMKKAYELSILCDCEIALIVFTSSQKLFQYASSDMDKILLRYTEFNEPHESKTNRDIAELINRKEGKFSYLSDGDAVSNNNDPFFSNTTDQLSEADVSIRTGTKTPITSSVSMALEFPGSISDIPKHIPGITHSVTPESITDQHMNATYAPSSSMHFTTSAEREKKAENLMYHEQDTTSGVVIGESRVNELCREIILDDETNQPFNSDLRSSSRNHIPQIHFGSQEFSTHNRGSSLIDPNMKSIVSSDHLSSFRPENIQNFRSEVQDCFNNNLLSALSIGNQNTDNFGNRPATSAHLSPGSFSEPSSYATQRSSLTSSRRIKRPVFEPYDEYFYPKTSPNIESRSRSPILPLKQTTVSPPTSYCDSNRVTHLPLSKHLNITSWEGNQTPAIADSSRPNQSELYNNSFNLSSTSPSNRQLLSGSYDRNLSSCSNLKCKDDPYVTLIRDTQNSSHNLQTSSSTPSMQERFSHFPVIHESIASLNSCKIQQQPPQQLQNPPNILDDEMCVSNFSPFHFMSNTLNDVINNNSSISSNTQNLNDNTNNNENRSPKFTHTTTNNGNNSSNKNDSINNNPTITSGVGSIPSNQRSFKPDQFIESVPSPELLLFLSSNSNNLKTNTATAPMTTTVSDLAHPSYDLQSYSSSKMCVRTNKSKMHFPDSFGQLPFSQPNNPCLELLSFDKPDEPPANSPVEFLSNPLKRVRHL

MBP-SmMef2 [2] = target: T1, MBP-SmMef2; experiment: competition; 200x cold vs labeled AT12 or AT13; LightShift kit 1x binding buffer, 2.5% glycerol, 5 mM MgCl2, 50 ng/uL poly(dI-dC), 0.05% NP-40, 180 fmol hot dsDNA, 1.4 ug protein, 20 min room temperature; 5%; conditions: protein: recombinant; tags: N-terminal MBP (pMAL-c5x); chain copies: 2; blunt

B1: AT11 (Drosophila Actin57B Mef2 site) (dsDNA)
DNA 1: GCTGAAGGATCTATTTTTAGGCGGATCGGC
DNA 2: GCCGATCCGCCTAAAAATAGATCCTTCAGC
- binding result (MBP-SmMef2 [1]): binds

B2: AT12 (common Mef2 consensus) (dsDNA)
DNA 1: GCTGAAGGATCTAAAAATAGGCGGATCGGC
DNA 2: GCCGATCCGCCTATTTTTAGATCCTTCAGC
- binding result (MBP-SmMef2 [1]): binds

B3: AT13 (M. polymorpha Mef2 site) (dsDNA)
DNA 1: GCTGAAGGATCTATATATAGGCGGATCGGC
DNA 2: GCCGATCCGCCTATATATAGATCCTTCAGC
- binding result (MBP-SmMef2 [1]): binds

B4: AT14 (Ndt80 MSE negative control) (dsDNA)
DNA 1: GCTGAAGGATGTCACAAAATGCGGATCGGC
DNA 2: GCCGATCCGCATTTTGTGACATCCTTCAGC
- binding result (MBP-SmMef2 [2]): no binding
